Data: patent publication US20150071907A1 (published 2015)

Biological target: T1, human macrophage mannose receptor (MMR) (human, UniProt P22897 19-1456)
T1 sequence (looked up): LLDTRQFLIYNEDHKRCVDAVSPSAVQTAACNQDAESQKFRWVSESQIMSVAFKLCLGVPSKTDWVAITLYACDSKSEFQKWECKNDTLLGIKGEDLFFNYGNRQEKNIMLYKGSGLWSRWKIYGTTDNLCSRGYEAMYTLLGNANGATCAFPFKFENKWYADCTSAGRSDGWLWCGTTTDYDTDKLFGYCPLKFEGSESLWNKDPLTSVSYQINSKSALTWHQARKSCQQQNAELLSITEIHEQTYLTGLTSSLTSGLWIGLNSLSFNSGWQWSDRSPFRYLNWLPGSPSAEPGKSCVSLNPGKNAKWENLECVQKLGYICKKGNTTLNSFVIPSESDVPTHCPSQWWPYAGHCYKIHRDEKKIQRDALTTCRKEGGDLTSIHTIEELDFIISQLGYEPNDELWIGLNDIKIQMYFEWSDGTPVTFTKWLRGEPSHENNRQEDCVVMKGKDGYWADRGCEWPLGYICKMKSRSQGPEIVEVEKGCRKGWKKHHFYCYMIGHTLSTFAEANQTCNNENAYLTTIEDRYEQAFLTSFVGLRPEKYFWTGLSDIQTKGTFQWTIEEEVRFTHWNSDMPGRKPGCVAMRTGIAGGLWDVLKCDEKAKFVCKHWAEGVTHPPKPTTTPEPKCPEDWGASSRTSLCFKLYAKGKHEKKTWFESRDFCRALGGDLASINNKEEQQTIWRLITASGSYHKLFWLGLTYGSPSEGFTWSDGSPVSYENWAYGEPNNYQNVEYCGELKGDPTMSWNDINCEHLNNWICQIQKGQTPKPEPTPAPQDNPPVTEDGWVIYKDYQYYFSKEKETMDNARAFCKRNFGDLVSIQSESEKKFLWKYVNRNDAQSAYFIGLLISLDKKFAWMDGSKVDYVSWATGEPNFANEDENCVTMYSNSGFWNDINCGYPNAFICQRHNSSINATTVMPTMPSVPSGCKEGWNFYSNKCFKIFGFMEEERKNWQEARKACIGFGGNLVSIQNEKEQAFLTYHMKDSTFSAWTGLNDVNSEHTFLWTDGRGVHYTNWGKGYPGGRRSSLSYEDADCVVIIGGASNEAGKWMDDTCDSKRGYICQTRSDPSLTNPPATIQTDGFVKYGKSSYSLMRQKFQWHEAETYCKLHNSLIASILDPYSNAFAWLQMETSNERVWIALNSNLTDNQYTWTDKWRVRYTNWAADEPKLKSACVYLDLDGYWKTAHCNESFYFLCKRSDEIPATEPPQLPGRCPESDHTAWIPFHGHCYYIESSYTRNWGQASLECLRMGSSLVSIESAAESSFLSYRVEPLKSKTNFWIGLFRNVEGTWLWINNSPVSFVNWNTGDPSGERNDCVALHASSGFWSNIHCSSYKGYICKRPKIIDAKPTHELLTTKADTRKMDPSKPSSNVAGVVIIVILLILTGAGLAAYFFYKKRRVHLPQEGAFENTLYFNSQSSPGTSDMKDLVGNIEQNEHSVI
Assay: cell-based or functional assay

B1: velaglucerase alfa (enzyme, human, UniProt P04062 40-536, looked up)
chain: ARPCIPKSFGYSSVVCVCNATYCDSFDPPTFPALGTFSRYESTRSGRRMELSMGPIQANHTGTGLLLTLQPEQKFQKVKGFGGAMTDAAALNILALSPPAQNLLLKSYFSEEGIGYNIIRVPMASCDFSIRTYTYADTPDDFQLHNFSLPEEDTKLKIPLIHRALQLAQRPVSLLASPWTSPTWLKTNGAVNGKGSLKGQPGDIYHQTWARYFVKFLDAYAEHKLQFWAVTAENEPSAGLLSGYPFQCLGFTPEHQRDFIARDLGPTLANSTHHNVRLLMLDDQRLLLPHWAKVVLTDPEAAKYVHGIAVHWYLDFLAPAKATLGETHRLFPNTMLFASEACVGSKFWEQSVRLGSWDRGMQYSHSIITNLLYHVVGWTDWNLALNPEGGPNWVRNFVDSPIIVDITKDTFYKQPMFYHLGHFSKFIPEGSQRVGLVASQKNDLDAVALMHPDGSAVVVVLNRSSKDVPLTIKDPAVGFLETISPGYSIHTYLWRRQ
modifications: primarily high-mannose type N-glycans (6-9 mannose units per glycan) at Asn19, Asn59, Asn146, Asn270
internalization rate in U937 cells relative to imiglucerase (4-MU-glc activity assay): ≤ 2.5 fold
